Legend:
human αvβ1 = biological target: T1, human αvβ1 (human, UniProt P06756 31-992; P05556 21-728); test: SPR binding assay, sample hu.aVb1,3,5,6
T1 construct: Counter-screen integrin; construct not described; also called hu.aVb1; αVP1

human αvβ3 = biological target: T2, human αvβ3 (human, UniProt P06756 31-992; P05106 27-718); test: SPR binding assay, sample hu.aVb1,3,5,6
T2 construct: Counter-screen integrin; construct not described; also called hu.aVb3; αV03

human αvβ5 = biological target: T3, human αvβ5 (human, UniProt P06756 31-992; P18084 24-719); test: SPR binding assay, sample hu.aVb1,3,5,6
T3 construct: Counter-screen integrin; construct not described; also called hu.aVb5; αV05
T3 sequence (P18084 24-719 limits assumed, one chain of several): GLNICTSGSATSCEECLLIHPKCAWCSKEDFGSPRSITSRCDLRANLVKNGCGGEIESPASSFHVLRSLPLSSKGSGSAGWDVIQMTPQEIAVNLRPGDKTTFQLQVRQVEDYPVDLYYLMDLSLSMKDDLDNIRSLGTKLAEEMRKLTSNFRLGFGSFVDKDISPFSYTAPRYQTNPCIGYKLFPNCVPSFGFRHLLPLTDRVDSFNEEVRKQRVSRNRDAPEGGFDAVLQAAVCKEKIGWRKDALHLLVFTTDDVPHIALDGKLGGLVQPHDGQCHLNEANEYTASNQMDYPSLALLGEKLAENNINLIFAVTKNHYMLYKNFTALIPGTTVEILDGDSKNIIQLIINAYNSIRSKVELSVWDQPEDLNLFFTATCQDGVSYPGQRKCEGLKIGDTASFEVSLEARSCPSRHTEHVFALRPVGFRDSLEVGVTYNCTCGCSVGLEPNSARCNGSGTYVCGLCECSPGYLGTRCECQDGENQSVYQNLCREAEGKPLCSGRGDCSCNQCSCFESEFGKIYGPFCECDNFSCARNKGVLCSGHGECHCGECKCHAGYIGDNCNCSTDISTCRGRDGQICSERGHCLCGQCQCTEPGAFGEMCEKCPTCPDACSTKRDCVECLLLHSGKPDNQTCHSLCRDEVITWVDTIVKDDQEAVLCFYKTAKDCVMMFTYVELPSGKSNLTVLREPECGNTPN

human αvβ6 = biological target: T4, human αvβ6 (human, UniProt P06756 31-992; P18564 22-709); test: SPR binding assay, sample hu.aVb1,3,5,6
T4 construct: Counter-screen integrin; construct not described; also called hu.aVb6; αV06
T4 sequence (P18564 22-709 limits assumed, one chain of several): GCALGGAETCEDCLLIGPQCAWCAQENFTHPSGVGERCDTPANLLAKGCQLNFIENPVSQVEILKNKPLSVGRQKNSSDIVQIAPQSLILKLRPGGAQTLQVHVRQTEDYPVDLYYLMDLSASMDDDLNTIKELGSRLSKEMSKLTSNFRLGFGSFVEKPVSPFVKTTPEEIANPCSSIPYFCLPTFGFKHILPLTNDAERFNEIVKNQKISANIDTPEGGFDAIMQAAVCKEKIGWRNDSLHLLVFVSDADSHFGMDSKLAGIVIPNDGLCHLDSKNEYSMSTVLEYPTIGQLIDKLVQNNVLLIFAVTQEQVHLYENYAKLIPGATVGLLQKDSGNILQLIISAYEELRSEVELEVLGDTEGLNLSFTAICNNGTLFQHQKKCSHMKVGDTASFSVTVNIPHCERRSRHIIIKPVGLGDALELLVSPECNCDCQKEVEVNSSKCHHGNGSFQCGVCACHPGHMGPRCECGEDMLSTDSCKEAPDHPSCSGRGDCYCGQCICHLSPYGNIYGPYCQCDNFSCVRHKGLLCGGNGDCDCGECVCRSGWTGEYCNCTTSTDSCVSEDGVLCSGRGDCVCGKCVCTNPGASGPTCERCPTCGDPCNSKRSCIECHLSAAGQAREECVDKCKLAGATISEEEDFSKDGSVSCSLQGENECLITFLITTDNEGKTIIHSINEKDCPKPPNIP

[1] = biological target: T5, recombinant human αvβ8 protein (PARS-17102) (human); test: SPR binding assay, experiment 1, antibody as ligand, aVb8 as sample
T5 construct: also called hu.aVb8.17102; not shown: C-terminal acid/basic coils and any purification tags
T5 alpha: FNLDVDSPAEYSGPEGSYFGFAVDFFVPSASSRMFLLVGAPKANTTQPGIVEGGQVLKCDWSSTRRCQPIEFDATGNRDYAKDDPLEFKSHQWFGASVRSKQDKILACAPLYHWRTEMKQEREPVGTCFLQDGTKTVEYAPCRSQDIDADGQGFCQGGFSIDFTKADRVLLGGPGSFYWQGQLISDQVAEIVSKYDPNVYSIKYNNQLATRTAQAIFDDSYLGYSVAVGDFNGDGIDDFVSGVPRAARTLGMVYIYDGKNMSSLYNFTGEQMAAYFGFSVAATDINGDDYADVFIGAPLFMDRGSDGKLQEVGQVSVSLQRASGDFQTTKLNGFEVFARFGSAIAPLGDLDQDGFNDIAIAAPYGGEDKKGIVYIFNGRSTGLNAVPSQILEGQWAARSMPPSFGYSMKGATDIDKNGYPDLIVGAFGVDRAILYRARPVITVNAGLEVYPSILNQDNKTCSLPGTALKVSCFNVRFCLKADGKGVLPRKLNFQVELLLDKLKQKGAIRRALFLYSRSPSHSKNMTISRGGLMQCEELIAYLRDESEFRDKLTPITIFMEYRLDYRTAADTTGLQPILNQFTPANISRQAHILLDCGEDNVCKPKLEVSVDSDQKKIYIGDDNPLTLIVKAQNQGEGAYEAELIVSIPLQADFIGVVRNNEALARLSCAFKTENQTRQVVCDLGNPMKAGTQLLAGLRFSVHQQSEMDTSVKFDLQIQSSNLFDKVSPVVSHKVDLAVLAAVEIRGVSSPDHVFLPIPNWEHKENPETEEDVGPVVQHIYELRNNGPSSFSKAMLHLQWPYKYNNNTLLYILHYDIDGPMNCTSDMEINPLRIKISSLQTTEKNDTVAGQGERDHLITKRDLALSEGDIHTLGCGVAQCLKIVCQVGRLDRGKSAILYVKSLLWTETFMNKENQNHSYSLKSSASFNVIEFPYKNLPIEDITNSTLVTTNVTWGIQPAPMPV
T5 beta: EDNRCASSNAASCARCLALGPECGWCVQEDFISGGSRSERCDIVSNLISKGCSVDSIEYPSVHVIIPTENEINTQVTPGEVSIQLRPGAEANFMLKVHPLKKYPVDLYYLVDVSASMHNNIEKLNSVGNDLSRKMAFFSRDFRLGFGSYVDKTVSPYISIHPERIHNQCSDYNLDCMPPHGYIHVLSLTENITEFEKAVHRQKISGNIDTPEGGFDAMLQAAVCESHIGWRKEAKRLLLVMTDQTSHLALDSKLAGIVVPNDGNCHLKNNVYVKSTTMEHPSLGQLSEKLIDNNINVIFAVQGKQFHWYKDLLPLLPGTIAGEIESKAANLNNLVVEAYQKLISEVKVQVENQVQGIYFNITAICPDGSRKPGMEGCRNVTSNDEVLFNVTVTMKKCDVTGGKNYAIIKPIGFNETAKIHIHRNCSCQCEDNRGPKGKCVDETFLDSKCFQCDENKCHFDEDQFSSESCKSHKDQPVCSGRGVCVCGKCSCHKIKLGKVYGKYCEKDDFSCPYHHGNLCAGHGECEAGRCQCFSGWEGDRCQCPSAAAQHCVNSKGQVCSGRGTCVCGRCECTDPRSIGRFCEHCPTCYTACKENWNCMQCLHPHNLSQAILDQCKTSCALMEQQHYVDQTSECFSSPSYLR

[2] = biological target: T6, recombinant mouse αvβ8 protein (PARS-17103) (murine, UniProt P43406 31-988; Q0VBD0 43-681, limits assumed); test: as above
T6 construct: Made in house; also called mu.aVb8.17103
T6 sequence (P43406 31-988 limits assumed, chain 1 of 2): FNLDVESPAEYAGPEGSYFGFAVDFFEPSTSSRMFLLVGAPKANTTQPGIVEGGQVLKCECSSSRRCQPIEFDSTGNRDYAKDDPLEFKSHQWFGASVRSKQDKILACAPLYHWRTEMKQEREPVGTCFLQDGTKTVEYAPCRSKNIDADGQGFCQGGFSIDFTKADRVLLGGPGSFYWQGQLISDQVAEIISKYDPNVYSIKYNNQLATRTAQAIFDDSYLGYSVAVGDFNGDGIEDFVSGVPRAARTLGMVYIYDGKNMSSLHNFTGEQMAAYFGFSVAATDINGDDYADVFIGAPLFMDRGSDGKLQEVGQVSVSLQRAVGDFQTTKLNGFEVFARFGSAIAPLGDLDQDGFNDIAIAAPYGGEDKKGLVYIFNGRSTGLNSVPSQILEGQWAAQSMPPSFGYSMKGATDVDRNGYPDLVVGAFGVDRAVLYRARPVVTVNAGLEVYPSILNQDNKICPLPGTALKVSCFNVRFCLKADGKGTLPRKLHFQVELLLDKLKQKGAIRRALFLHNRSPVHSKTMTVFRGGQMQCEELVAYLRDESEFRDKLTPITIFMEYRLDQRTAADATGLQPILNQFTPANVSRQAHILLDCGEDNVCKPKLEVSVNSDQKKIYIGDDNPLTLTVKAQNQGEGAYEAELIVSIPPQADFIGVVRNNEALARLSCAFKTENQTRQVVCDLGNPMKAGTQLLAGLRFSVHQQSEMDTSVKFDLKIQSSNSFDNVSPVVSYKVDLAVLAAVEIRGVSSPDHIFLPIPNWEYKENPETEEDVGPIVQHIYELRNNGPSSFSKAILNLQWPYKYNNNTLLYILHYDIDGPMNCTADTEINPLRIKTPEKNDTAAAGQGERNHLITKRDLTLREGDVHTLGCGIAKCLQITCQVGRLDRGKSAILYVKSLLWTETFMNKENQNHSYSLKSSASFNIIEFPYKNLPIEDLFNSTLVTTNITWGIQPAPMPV
T6 sequence (Q0VBD0 43-681 limits assumed, chain 2 of 2): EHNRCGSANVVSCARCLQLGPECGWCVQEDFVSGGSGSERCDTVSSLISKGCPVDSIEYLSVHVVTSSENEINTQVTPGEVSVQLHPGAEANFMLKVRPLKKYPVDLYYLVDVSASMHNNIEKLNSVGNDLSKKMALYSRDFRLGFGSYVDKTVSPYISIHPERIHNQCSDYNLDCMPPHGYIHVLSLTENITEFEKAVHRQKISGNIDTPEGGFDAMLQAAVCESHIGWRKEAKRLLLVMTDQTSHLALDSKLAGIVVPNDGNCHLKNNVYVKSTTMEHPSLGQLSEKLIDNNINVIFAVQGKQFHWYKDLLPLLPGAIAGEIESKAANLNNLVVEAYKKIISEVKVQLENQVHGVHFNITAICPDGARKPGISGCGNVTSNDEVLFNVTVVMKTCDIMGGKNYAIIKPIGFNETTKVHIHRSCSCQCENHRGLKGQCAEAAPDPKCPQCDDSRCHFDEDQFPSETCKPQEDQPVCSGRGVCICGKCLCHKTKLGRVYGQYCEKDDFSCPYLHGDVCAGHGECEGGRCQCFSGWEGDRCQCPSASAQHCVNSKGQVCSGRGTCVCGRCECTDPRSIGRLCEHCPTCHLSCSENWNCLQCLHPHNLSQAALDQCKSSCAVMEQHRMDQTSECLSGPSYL

[3] = biological target: T7, recombinant cynomolgus monkey αvβ8 protein (PARS-19393) (cynomolgus monkey, UniProt A0A2K5WCD3 31-992; G7P0S0 43-684); test: as above
T7 construct: also called cyno.aVb8-19393; cyno.aVb8

[4] = biological target: T5, recombinant human αvβ8 protein …; test: SPR binding assay, experiment 2, antibody as ligand, aVb8 as sample
[5] = biological target: T6, recombinant mouse αvβ8 protein …; test: as above
cyno.aVb8.13650 = biological target: T8, cyno.aVb8.13650 (cynomolgus, UniProt A0A2K5WCD3 31-992; G7P0S0 43-684); test: as above
T8 construct: Carries another lot/construct number than cyno.aVb8-19393; kept apart; also called cynomolgus αvβ8

T2 sequence (P05106 27-718 limits assumed, chain 2 of 2, one chain of several): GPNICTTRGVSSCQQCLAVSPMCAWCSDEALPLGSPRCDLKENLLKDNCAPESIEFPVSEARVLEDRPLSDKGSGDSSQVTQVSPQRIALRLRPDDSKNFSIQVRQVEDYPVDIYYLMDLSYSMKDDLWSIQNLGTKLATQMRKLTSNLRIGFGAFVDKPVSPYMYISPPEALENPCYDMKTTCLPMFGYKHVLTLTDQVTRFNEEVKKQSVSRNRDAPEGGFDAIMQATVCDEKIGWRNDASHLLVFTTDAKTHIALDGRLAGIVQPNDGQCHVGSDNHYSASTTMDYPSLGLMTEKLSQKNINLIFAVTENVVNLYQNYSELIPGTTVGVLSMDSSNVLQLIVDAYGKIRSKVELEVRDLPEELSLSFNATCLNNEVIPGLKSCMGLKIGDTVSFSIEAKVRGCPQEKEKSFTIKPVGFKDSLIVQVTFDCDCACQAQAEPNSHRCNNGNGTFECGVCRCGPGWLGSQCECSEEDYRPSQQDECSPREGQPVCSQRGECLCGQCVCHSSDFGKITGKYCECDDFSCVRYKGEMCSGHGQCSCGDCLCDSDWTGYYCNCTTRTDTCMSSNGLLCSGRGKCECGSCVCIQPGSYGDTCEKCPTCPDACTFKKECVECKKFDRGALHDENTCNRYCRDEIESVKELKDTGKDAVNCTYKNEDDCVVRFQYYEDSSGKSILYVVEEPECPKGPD
T1 sequence (P05556 21-728 limits assumed, one chain of several): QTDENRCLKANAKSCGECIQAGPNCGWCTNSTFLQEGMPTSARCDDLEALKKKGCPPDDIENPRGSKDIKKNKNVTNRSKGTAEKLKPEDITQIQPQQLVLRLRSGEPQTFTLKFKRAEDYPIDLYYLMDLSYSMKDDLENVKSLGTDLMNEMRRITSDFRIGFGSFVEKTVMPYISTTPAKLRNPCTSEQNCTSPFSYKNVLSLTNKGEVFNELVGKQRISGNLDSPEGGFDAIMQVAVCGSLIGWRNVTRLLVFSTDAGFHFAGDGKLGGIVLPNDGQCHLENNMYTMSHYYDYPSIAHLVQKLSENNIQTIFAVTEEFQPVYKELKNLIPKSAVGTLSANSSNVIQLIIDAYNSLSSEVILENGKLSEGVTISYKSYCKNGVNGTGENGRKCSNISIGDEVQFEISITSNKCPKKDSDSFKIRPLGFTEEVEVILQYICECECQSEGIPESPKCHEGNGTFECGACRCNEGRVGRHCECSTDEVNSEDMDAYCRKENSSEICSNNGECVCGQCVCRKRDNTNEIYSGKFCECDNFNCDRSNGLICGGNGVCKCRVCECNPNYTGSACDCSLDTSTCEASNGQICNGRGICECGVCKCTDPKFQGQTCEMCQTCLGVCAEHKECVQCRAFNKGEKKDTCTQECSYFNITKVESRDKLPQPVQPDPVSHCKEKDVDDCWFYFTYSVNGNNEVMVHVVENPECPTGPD

binding result (human αvβ1): no binding
binding result (human αvβ3): no binding
binding result (human αvβ5): no binding
binding result (human αvβ6): no binding
Kd [1]: 0.384 nM
koff [1]: 0.000208 s⁻¹
kon [1]: 540000 M⁻¹ s⁻¹
Kd [2]: 0.906 nM
koff [2]: 0.000155 s⁻¹
kon [2]: 171000 M⁻¹ s⁻¹
Kd [3]: 0.48 nM
koff [3]: 0.000164 s⁻¹
kon [3]: 341000 M⁻¹ s⁻¹
Kd [4]: 1.04 nM
koff [4]: 0.000181 s⁻¹
kon [4]: 174000 M⁻¹ s⁻¹
Kd [5]: 1.23 nM
koff [5]: 0.000152 s⁻¹
kon [5]: 123000 M⁻¹ s⁻¹
Kd (cyno.aVb8.13650): 2.41 nM
koff (cyno.aVb8.13650): 0.000151 s⁻¹
kon (cyno.aVb8.13650): 62700 M⁻¹ s⁻¹
B1: Hu.aVb8-65.H15L2 (aVb8-65.H15L2.hIgG1.LALAPG) (antibody, V domains shown)
VH: EVQLLESGGGLVQPGGSLRLSCAASGIDLSNYAMIWVRQAPGKGLEWVGIISSSDRIWYASWVKGRFTISRDNSKNTLYLQMNSLRAEDTAVYYCSRSVSNSYFDGWNLWGQGTLVTVSS
VL: DIQMTQSPSSVSASVGDRVTITCQASENINSLLAWYQQKPGKAPKLLIYRASTLASGVPSRFSGSGSGTDFTLTISSLQPEDFATYYCQSNYGFTGSGAFFYGFGQGTKVEIKR
notes: Human IgG1 LALAPG; also called PARS-20475-65 (IH) aVb8-65.H15L2.hIgG1.LALAPG; humanized αvβ8-65

Source: patent US20240327522A1 (Genentech, published 2024)
